# The supplement of paper PMC10567573
# B1: BRF1 (parent)
# chain: CTACGSVLEDNIIVSEVQFVESSG
# Variants of: B1
# Assay: protein stability index of a GFP-peptide fusion (GPS, HEK-293T) (PSI 1-6); higher = more stable
# Settings: c terminus: a fixed tail appended
# 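Further: lentivirally expressed fusions sorted by FACS into six bins by GFP to DsRed ratio, PSI derived from sequencing read proportions per bin multiplied by bin number.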
row,Variant,protein stability index
1,CTACGSVLEDNIIDSEVQFVESSG [V14D],4.33
2,CTACGSVLEDNIINSEVQFVESSG [V14N],4.23
3,CTACGSVLEDNIIHSEVQFVESSG [V14H],3.94
4,CTACGSVLEDNIIASEVQFVESSG [V14A],3.63
5,CTACGSVLEDNIILSEVQFVESSG [V14L],2.78
6,CTACGSVLEDNIIGSEVQFVESSG [V14G],3.54
7,CTACGSVLEDNIIWSEVQFVESSG [V14W],2.14
8,CTACGSVLEDNIICSEVQFVESSG [V14C],2.64
9,CTACGSVLEDNIITSEVQFVESSG [V14T],3.95
10,CTACGSVLEDNIIRSEVQFVESSG [V14R],3.89
11,CTACGSVLEDNIISSEVQFVESSG [V14S],3.49
12,CTACGSVLEDNIIFSEVQFVESSG [V14F],2.57
13,CTACGSVLEDNIIYSEVQFVESSG [V14Y],2.73
14,CTACGSVLEDNIIPSEVQFVESSG [V14P],3.96
15,CTACGSVLEDNIIQSEVQFVESSG [V14Q],4.25
16,CTACGSVLEDNIIESEVQFVESSG [V14E],4.28
17,CTACGSVLEDNIIKSEVQFVESSG [V14K],3.53
18,CTACGSVLEDNIIISEVQFVESSG [V14I],2.68
19,CTACGSVLEDNIIVSEFQFVESSG [V17F],2.56
20,CTACGSVLEDNIIVSEYQFVESSG [V17Y],2.87
21,CTACGSVLEDNIIVSEKQFVESSG [V17K],4.41
22,CTACGSVLEDNIIVSEHQFVESSG [V17H],4.4
23,CTACGSVLEDNIIVSESQFVESSG [V17S],4.35
24,CTACGSVLEDNIIVSETQFVESSG [V17T],4.09

row,Variant,protein stability index
1,CTACGSVLEDNIIVSEDQFVESSG [V17D],3.87
2,CTACGSVLEDNIIVSEQQFVESSG [V17Q],4.07
3,CTACGSVLEDNIIVSERQFVESSG [V17R],3.83
4,CTACGSVLEDNIIVSELQFVESSG [V17L],2.29
5,CTACGSVLEDNIIVSEAQFVESSG [V17A],4.27
6,CTACGSVLEDNIIVSEPQFVESSG [V17P],3.71
7,CTACGSVLEDNIIVSEGQFVESSG [V17G],4.45
8,CTACGSVLEDNIIVSENQFVESSG [V17N],3.56
9,CTACGSVLEDNIIVSEIQFVESSG [V17I],1.92
10,CTACGSVLEDNIIVSECQFVESSG [V17C],3.48
11,CTACGSVLEDNIIVSEEQFVESSG [V17E],3.88
12,CTACGSVLEDNIIVSEMQFVESSG [V17M],2.37
13,CTACGSVLEDNIIVSEWQFVESSG [V17W],2.1
14,CTACGSVLEDNIIVSEVQFVHSSG [E21H],2.88
15,CTACGSVLEDNIIVSEVQFVCSSG [E21C],3.27
16,CTACGSVLEDNIIVSEVQFVVSSG [E21V],2.82
17,CTACGSVLEDNIIVSEVQFVYSSG [E21Y],1.77
18,CTACGSVLEDNIIVSEVQFVPSSG [E21P],3.38
19,CTACGSVLEDNIIVSEVQFVMSSG [E21M],2.4
20,CTACGSVLEDNIIVSEVQFVRSSG [E21R],3.53
21,CTACGSVLEDNIIVSEVQFVDSSG [E21D],3.19
22,CTACGSVLEDNIIVSEVQFVLSSG [E21L],2.7
23,CTACGSVLEDNIIVSEVQFVISSG [E21I],2.28
24,CTACGSVLEDNIIVSEVQFVWSSG [E21W],2.05

row,Variant,protein stability index
1,CTACGSVLEDNIIVSEVQFVKSSG [E21K],2.94
2,CTACGSVLEDNIIVSEVQFVGSSG [E21G],3.58
3,CTACGSVLEDNIIVSEVQFVQSSG [E21Q],3.02
4,CTACGSVLEDNIIVSEVQFVSSSG [E21S],2.54
5,CTACGSVLEDNIIVSEVQFVNSSG [E21N],3.51
6,CTACGSVLEDNIIVSEVQFVFSSG [E21F],1.87
7,CTACGSVLEDNIIVSEVQFVTSSG [E21T],2.34
8,CTACGSVLEDNIIVSEVQFVASSG [E21A],2.58
9,CTACGSVLEDNIIVFEVQFVESSG [S15F],1.04
10,CTACGSVLEDNIIVIEVQFVESSG [S15I],1.36
11,CTACGSVLEDNIIVMEVQFVESSG [S15M],1.16
12,CTACGSVLEDNIIVAEVQFVESSG [S15A],3.65
13,CTACGSVLEDNIIVYEVQFVESSG [S15Y],2.06
14,CTACGSVLEDNIIVVEVQFVESSG [S15V],1.91
15,CTACGSVLEDNIIVKEVQFVESSG [S15K],3.19
16,CTACGSVLEDNIIVREVQFVESSG [S15R],3.67
17,CTACGSVLEDNIIVTEVQFVESSG [S15T],3.02
18,CTACGSVLEDNIIVLEVQFVESSG [S15L],1.69
19,CTACGSVLEDNIIVCEVQFVESSG [S15C],2.82
20,CTACGSVLEDNIIVHEVQFVESSG [S15H],2.71
21,CTACGSVLEDNIIVDEVQFVESSG [S15D],4.08
22,CTACGSVLEDNIIVQEVQFVESSG [S15Q],3.11
23,CTACGSVLEDNIIVWEVQFVESSG [S15W],2.75
24,CTACGSVLEDNIIVNEVQFVESSG [S15N],3.79

row,Variant,protein stability index
1,CTACGSVLEDNIIVPEVQFVESSG [S15P],3.15
2,CTACGSVLEDNIIVEEVQFVESSG [S15E],3.74
3,CTACGSVLEDNIIVGEVQFVESSG [S15G],2.92
4,CTACGSVLEDNIIVSEVQHVESSG [F19H],4.36
5,CTACGSVLEDNIIVSEVQWVESSG [F19W],2.88
6,CTACGSVLEDNIIVSEVQCVESSG [F19C],2.43
7,CTACGSVLEDNIIVSEVQMVESSG [F19M],3.63
8,CTACGSVLEDNIIVSEVQKVESSG [F19K],4.19
9,CTACGSVLEDNIIVSEVQQVESSG [F19Q],3.76
10,CTACGSVLEDNIIVSEVQPVESSG [F19P],4.2
11,CTACGSVLEDNIIVSEVQAVESSG [F19A],5.26
12,CTACGSVLEDNIIVSEVQEVESSG [F19E],4.27
13,CTACGSVLEDNIIVSEVQSVESSG [F19S],4.59
14,CTACGSVLEDNIIVSEVQDVESSG [F19D],4.53
15,CTACGSVLEDNIIVSEVQRVESSG [F19R],4.42
16,CTACGSVLEDNIIVSEVQYVESSG [F19Y],3.49
17,CTACGSVLEDNIIVSEVQLVESSG [F19L],3.49
18,CTACGSVLEDNIIVSEVQIVESSG [F19I],2.87
19,CTACGSVLEDNIIVSEVQVVESSG [F19V],3.11
20,CTACGSVLEDNIIVSEVQNVESSG [F19N],4.33
21,CTACGSVLEDNIIVSEVQTVESSG [F19T],3.98
22,CTACGSVLEDNIIVSEVQGVESSG [F19G],4.32
